{
  "source": "patent US20210355220A1",
  "about": "(TIKCRO TECHNOLOGIES, published 2021)",
  "binders": {"B1": {"name": "Ab55h (antibody, V domains shown)", "VH": "QVQLQESGPGLVKPSETLSLTCAVSGYSISGDYYWGWIRQPPGKGLEWIGSIYHSGYTYYNPSLKSRVTISVDTSKNQFSLKLSSVTAADTAVYYCARDSGWYVIAFDYWGQGTLVTVSS", "VL": "EIVMTQSPATLSVSPGERATLSCRASQSVSSNLAWYQEKPGQAPRLLIYGASTRATGIPARFSGSGSGTEFTLTISSLQSEDFAVYYCQQYNNWPPLTFGGGTKVEIK", "notes": "Human form, compared with an hIgG1 isotype control"}},
  "key": {"hBTLA on HEK293 cells": {"biological_target": "T1, hBTLA on HEK293 cells (human, UniProt Q7Z6A9 31-289)", "T1 construct": "whole, on cells", "assay": "flow cytometry on transfected HEK293 cells", "procedure": "(§1) HEK293 cells were transfected with expression vectors of the following immune-related proteins: hBTLA, hICOS, hCD28, hPDL1, hPD1, hPDL2, and hCTLA-4. Over-expression of the proteins was verified using commercial antibodies against each target. […] Antibody binding to cells was then detected using flow cytometry. Cells that were incubated only with the secondary antibody were used as a background control. […] Note that “+” indicates binding above the background level and “-” indicate no binding as compared to the background level."}, "hICOS on HEK293 cells": {"biological_target": "T2, hICOS on HEK293 cells (human, UniProt Q9Y6W8 21-199)", "T2 construct": "whole, on cells", "T2 sequence (looked up)": "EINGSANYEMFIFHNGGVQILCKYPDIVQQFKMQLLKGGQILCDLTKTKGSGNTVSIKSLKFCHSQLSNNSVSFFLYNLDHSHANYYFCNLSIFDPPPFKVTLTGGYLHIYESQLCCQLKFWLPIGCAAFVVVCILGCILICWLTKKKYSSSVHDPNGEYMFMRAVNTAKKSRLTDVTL", "assay": "flow cytometry on transfected HEK293 cells", "procedure": "as §1"}, "hCD28 on HEK293 cells": {"biological_target": "T3, hCD28 on HEK293 cells (human, UniProt P10747 19-220)", "T3 construct": "whole, on cells", "assay": "flow cytometry on transfected HEK293 cells", "procedure": "as §1"}, "hPDL1 on HEK293 cells": {"biological_target": "T4, hPDL1 on HEK293 cells (human, UniProt Q9NZQ7 19-290)", "T4 construct": "whole, on cells", "T4 sequence (Q9NZQ7 19-290)": "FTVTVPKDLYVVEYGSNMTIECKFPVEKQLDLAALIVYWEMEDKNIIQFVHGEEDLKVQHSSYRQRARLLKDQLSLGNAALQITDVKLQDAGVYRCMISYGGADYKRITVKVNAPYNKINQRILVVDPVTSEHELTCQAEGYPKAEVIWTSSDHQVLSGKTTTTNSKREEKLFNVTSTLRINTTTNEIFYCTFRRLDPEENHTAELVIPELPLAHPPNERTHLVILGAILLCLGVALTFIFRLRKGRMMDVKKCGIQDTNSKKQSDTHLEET", "assay": "flow cytometry on transfected HEK293 cells", "procedure": "as §1"}, "hPDL2 on HEK293 cells": {"biological_target": "T5, hPDL2 on HEK293 cells (human, UniProt Q9BQ51 20-273)", "T5 construct": "whole, on cells", "T5 sequence (looked up)": "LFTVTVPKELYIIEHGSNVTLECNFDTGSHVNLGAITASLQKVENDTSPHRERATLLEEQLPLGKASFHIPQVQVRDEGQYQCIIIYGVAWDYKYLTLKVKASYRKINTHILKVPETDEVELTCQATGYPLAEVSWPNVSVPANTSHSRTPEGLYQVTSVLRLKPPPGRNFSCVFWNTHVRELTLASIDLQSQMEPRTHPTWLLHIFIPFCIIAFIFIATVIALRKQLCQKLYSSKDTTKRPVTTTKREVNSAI", "assay": "flow cytometry on transfected HEK293 cells", "procedure": "as §1"}, "hPD1 on HEK293 cells": {"biological_target": "T6, hPD1 on HEK293 cells (human, UniProt Q15116 25-288)", "T6 construct": "whole, on cells", "T6 sequence (Q15116 25-288)": "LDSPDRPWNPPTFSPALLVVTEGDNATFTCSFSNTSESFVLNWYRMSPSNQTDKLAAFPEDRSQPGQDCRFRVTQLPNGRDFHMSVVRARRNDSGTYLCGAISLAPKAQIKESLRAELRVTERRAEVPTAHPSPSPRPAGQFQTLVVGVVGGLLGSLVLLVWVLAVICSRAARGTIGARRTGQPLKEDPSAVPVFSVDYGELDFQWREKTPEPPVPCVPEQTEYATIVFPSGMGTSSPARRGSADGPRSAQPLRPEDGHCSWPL", "assay": "flow cytometry on transfected HEK293 cells", "procedure": "as §1"}, "[1]": {"biological_target": "T7, human CTLA-4 expressed on cells (human, UniProt P16410 36-223)", "T7 construct": "whole, on cells; On stably or transiently transfected HEK293 cells; also called hCTLA-4; HEK293-hCTLA-4 cells", "T7 sequence (P16410 36-223)": "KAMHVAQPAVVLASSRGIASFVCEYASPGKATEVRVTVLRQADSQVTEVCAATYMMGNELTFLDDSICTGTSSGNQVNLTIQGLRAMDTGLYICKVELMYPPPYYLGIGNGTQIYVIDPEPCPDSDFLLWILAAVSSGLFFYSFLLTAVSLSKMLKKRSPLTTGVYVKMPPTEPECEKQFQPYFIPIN", "assay": "flow cytometry on transfected HEK293 cells", "procedure": "as §1"}, "[2]": {"biological_target": "T7, human CTLA-4 expressed on cells", "assay": "flow cytometry on HEK293-hCTLA-4 cells, reference tremelimumab", "procedure": "To test the binding of antibodies to CTLA-4 under more physiological conditions, the binding of CTLA-4 antibodies to cell-surface CTLA-4 was tested. […] The surface expression of hCTLA-4 in the obtained cell line was tested using a commercial anti-CTLA-4 antibody and compared to the parent cell line (HEK293 without transfection). […] The anti-CTLA-4 antibodies were incubated in serial dilution concentrations with the HEK293-hCTLA-4 cells for 1 hour on ice. Following a wash step, an anti-human antibody conjugated to ALEXA FLUOR® 647® was added for an additional hour. The cells were washed, and propidium iodide (PI) was added to exclude dead cells. The fluorescent signal was measured using FACS and analyzed. Dead cells were removed based on the PI signal. The population was gated based on forward and side scatter (FSC and SSC) parameters, and doublets were removed. The Median Fluorescent Intensity (MFI) of the appropriate channel was calculated for the live single cells from each group. The MFI was plotted versus antibody concentration in Prism software (V6.01) and kinetic parameters were obtained using a curve fit dose response function with four parameters. […] The lower EC₅₀ values indicate increased binding affinity to cell surface hCTLA-4."}, "[3]": {"biological_target": "T7, human CTLA-4 expressed on cells", "assay": "flow cytometry, inhibition of CD80-mFC binding to HEK293-hCTLA-4 cells", "procedure": "(§2) As part of their activity, CTLA-4 therapeutic antibodies block the interaction between CTLA-4 and its ligands, leaving the ligands free for CD28 binding. […] First, HEK293-hCTLA-4 cells were incubated with the tested antibodies in a serial dilution for 30 minutes. […] The fluorescence was measured and analyzed. The experiment was performed in triplicate and is representative of three biological repeats."}, "[4]": {"biological_target": "T8, Mouse (Mus musculus) CTLA-4 on HEK293 cells (Mus musculus, UniProt P09793 36-223)", "T8 construct": "whole, on cells; also called mouse CTLA-4", "assay": "flow cytometry on HEK293 cells transiently expressing mouse CTLA-4, reference ipilimumab", "procedure": "(§3) Macaque (Macaca fascicularis), pig (Sus scrofa) and mouse (Mus musculus) CTLA-4 proteins were transiently expressed on the surface of HEK293 cells. […] Binding was measured using FACS and analyzed."}, "[5]": {"biological_target": "T9, Macaque (Macaca fascicularis) CTLA-4 on HEK293 cells (Macaca fascicularis, UniProt G7PL88 36-223)", "T9 construct": "whole, on cells; also called macaque CTLA-4", "T9 sequence (G7PL88 entry or part of it)": "as the sequence (P16410 36-223) above, with S14N, I18T, L106M counted along it", "assay": "flow cytometry on HEK293 cells transiently expressing macaque CTLA-4, reference ipilimumab", "procedure": "as §3"}, "[6]": {"biological_target": "T7, human CTLA-4 expressed on cells", "assay": "flow cytometry, inhibition of CD80-mFC binding to HEK293-hCTLA-4 cells, reference ipilimumab", "procedure": "as §2"}, "[7]": {"biological_target": "T7, human CTLA-4 expressed on cells", "assay": "flow cytometry, inhibition of CD86-mFC binding to HEK293-hCTLA-4 cells, reference ipilimumab", "procedure": "as §2"}, "[8]": {"biological_target": "T7, human CTLA-4 expressed on cells", "assay": "flow cytometry, inhibition of CD80-mFC binding to HEK293-hCTLA-4 cells, reference tremelimumab", "procedure": "as §2"}},
  "data": [
    {"binder": "B1", "values": [
      {"measurement": "MFI", "setting": "hBTLA on HEK293 cells", "value": 68, "unit": "MFI"},
      {"measurement": "binding result", "setting": "hBTLA on HEK293 cells", "value": "no binding"},
      {"measurement": "MFI", "setting": "hICOS on HEK293 cells", "value": 67, "unit": "MFI"},
      {"measurement": "binding result", "setting": "hICOS on HEK293 cells", "value": "no binding"},
      {"measurement": "MFI", "setting": "hCD28 on HEK293 cells", "value": 66, "unit": "MFI"},
      {"measurement": "binding result", "setting": "hCD28 on HEK293 cells", "value": "no binding"},
      {"measurement": "MFI", "setting": "hPDL1 on HEK293 cells", "value": 69, "unit": "MFI"},
      {"measurement": "binding result", "setting": "hPDL1 on HEK293 cells", "value": "no binding"},
      {"measurement": "MFI", "setting": "hPDL2 on HEK293 cells", "value": 70, "unit": "MFI"},
      {"measurement": "binding result", "setting": "hPDL2 on HEK293 cells", "value": "no binding"},
      {"measurement": "MFI", "setting": "hPD1 on HEK293 cells", "value": 72, "unit": "MFI"},
      {"measurement": "binding result", "setting": "hPD1 on HEK293 cells", "value": "no binding"},
      {"measurement": "MFI", "setting": "[1]", "value": 3290, "unit": "MFI"},
      {"measurement": "Ratio Tremelimumab:Ab55h of EC50", "setting": "[2]", "value": 7.5, "unit": "fold"},
      {"measurement": "IC50", "setting": "[3]", "value": 1.6, "unit": "nM"},
      {"measurement": "Ratio Ipilimumab:Ab55h of EC50", "setting": "[4]", "value": 0.18, "unit": "fold"},
      {"measurement": "Ratio Ipilimumab:Ab55h of EC50", "setting": "[5]", "value": 2.6, "unit": "fold"},
      {"measurement": "Ratio Ipilimumab:Ab55h of IC50", "setting": "[6]", "value": 3, "unit": "fold"},
      {"measurement": "Ratio Ipilimumab:Ab55h of IC50", "setting": "[7]", "value": 2.2, "unit": "fold"},
      {"measurement": "Ratio Tremelimumab:Ab55h of IC50", "setting": "[8]", "value": 1.6, "unit": "fold"}
    ]}
  ]
}
